From patent publication US20200277377A1 (WUXI BIOLOGICS SHANGHAI, published 2020)

T1: human CTLA-4.ECD.hFc (human, UniProt P16410 36-161)
T1 construct: extracellular domain; also called hCTLA-4.ECD.hFc; not shown: human Fc tag (hFc)
T1 sequence (looked up): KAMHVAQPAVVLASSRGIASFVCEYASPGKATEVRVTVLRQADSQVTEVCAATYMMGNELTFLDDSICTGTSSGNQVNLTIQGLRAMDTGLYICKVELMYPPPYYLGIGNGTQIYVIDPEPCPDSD

T2: full length human CTLA-4 on cells (human, UniProt P16410 36-223)
T2 construct: whole, on cells; also called CTLA-4-expressing cell line
T2 sequence (looked up): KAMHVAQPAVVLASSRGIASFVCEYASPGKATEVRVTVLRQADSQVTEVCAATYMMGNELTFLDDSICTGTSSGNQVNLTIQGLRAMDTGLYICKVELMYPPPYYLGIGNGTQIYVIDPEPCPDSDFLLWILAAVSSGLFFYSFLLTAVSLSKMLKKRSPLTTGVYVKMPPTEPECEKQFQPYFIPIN

T3: human CTLA-4.ECD-6×His (human, UniProt P16410 36-161)
T3 construct: extracellular domain; also called WBP316.hCTLA-4.ECD-6×His; hCTLA4-His (WT)
T3 sequence: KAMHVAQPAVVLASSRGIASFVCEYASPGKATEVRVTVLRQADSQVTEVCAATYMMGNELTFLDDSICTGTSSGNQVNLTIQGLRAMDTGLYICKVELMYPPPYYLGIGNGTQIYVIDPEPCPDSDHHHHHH

T4: hCTLA4_ECD.His point mutant P137 to alanine (human, UniProt P16410 36-161)
T4 construct: extracellular domain; alanine-scan mutein, HEK293F supernatant
T4 sequence (looked up): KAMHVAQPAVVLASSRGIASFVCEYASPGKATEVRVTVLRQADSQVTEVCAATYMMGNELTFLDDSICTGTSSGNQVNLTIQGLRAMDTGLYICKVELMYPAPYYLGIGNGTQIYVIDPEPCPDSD

T5: hCTLA4_ECD.His point mutant V71 to alanine (human, UniProt P16410 36-161)
T5 construct: extracellular domain; alanine-scan mutein, HEK293F supernatant
T5 sequence (looked up): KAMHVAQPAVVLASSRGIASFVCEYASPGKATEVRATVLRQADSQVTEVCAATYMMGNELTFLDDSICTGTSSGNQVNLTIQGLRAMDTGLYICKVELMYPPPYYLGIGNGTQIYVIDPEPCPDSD

T6: hCTLA-4.ECD.hFc-Biotin (human, UniProt P16410 36-161, biotinylated (sites not given))
T6 construct: extracellular domain; also called Biotinylated CTLA-4.ECD.hFc; biotinylated human CTLA4.ECD.hFc; not shown: human Fc tag (hFc)
T6 sequence (looked up): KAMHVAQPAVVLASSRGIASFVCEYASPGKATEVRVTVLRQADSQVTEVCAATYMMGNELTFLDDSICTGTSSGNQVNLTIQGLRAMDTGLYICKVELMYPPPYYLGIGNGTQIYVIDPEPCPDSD


Experiments:
[1] = molecular target: T1, human CTLA-4.ECD.hFc; assay: competition ELISA, coated human CTLA-4.ECD.hFc, competitor CD80-6×His
Procedure: (§1) Plates were coated with human CTLA-4.ECD.hFc (0.5 μg/mL) at 4° C. for 16-20 hours. […] After washing three times with PBS containing 0.05% Tween 20, biotinylated anti-His tag antibody was 1:2000 diluted and added. The plates were incubated at room temperature for 1 hour. The bound ligands were detected by HRP conjugated streptavidin (1:20000). The color was developed by dispensing 100 μL of TMB substrate for 8 mins, and then stopped by 100 μL of 2N HCl.

[2] = molecular target: T2, full length human CTLA-4 on cells; assay: FACS on human CTLA4 expression 293F cell line
Procedure: A number of 1×10⁵ cells per well was added to each well of a 96-well plate and centrifuged at 1500 rpm for 4 minutes at 4° C. before removing the supernatant. Serial dilutions of test antibodies, positive and negative controls were added to the resuspended cells and incubated for 1 hour at 4° C. The cells were washed two times with 200 μL DPBS containing 1% BSA. PE conjugated goat anti-human IgG (1:100) diluted in DPBS containing 1% BSA was added to the cells and incubated at 4° C. for 1 hour. Additional washing steps were performed two times with 200 μL DPBS containing 1% BSA followed by centrifugation at 1500 rpm for 4 minutes at 4° C. Finally, the cells were resuspended in 100 μL DPBS containing 1% BSA and fluorescence values were measured by flow cytometry and analyzed by FlowJo.

[3] = molecular target: T3, human CTLA-4.ECD-6×His; assay: ELISA, coated human CTLA-4.ECD-6×His
Procedure: (§2) ELISA was used to test binding of anti-human CTLA-4 antibodies to human, murine and cynomolgus monkey CTLA-4 protein. A 96-well plate was coated with human CTLA-4.ECD-6×His (1.0 μg/mL), cynomoguls monkey CTLA-4.ECD-6×His (0.5 μg/mL) or mouse CTLA-4.ECD-6×His (0.5 μg/mL) at 4° C. for 16-20 hours. After 1 hour blocking with 2% BSA in DBPS, testing antibodies, as well as positive and negative control antibodies were added to the plates and incubated at room temperature for 1 hour. The binding of the antibodies to the plates were detected by HRP-conjugated goat anti-human IgG antibody (1:5000 dilution) with 1 hour incubation. The color was developed by dispensing 100 μL of TMB substrate for 8 mins, and then stopped by 100 μL of 2N HCl.

[4] = molecular target: T4, hCTLA4_ECD.His point mutant P137 to …; assay: capture ELISA, alanine scan, vs silent alanine substitutions
Procedure: (§3) In order to test how the mutations affect antibody-binding, a capture ELISA was conducted. […] After interacting with the supernatant that contains quantified CTLA4 muteins, HRP conjugated anti-His antibody (1:5000; Rockland Immunochemicals, Pottstown, Pa.) was added as detection antibody. TMB was used as substance of HRP. Absorbance was normalized according to the average of control mutants. After setting an additional cutoff to the binding fold change (<0.55), the final determined epitope residues were identified.

[5] = molecular target: T5, hCTLA4_ECD.His point mutant V71 to …; assay: as above
Procedure: as §3

[6] = molecular target: T7, cynomolgus monkey CTLA-4 ECD-6×His (cynomolgus monkey); assay: ELISA, coated cynomolgus monkey CTLA-4.ECD-6×His
T7 construct: extracellular domain; Bought; also called cynomoguls monkey CTLA-4.ECD-6×His
Procedure: as §2

[7] = molecular target: T6, hCTLA-4.ECD.hFc-Biotin; assay: FACS competition, hCTLA-4.ECD.hFc-Biotin on CD80-expressing CHO cells
Procedure: PE conjugated Streptavidin was purchased from eBioscience (Catalog number 12-4317).
Then the mixtures of antibody and CTLA-4 were added to the cells and incubated for 1 hour at 4° C. The cells were washed two times with 200 μL FACS buffer (DPBS containing 1% BSA). Streptavidin PE 1 to 333 diluted in FACS buffer was added to the cells and incubated at 4° C. for 1 hour. Additional washing steps were performed two times with 200 μL FACS buffer followed by centrifugation at 1500 rpm for 4 minutes at 4° C. Finally, the cells were resuspended in 100 μL FACS buffer and fluorescence values were measured by flow cytometry and analyzed by FlowJo.

[8] = molecular target: T1, human CTLA-4.ECD.hFc; assay: competition ELISA, coated human CTLA-4.ECD.hFc, competitor CD86-6×His
Procedure: as §1

Row | IC50 [1] [nM] | EC50 [2] [nM] | EC50 [3] [nM] | Fold change [4] [fold] | Fold change [5] [fold] | EC50 [6] [nM] | IC50 [7] [nM] | IC50 [8] [nM] | Binder
1 | 0.63 | 0.66 | 0.04 | 0.534 | 0.347 | 0.05 | 0.07 | 0.5 | W3162_1.154.8-z35-uAb.IgG1K (antibody, V domains shown, Humanized; label says IgG1K) VH: QVQLVQSGAEVKKPGSSVKVSCKASGYTFTNYFMNWVRQAPGQGLEWMGRVDPEQGRADYAEKFKKRVTITADKSTSTAYMELSSLRSEDTAVYYCARRAMDNYGFAYWGQGTLVTVSS VL: EIVLTQSPDFQSVTPKEKVTITCSANSALSYMYWYQQKPDQSPKLWVHGTSNLASGVPSRFSGSGSGTDFTLTINSLEAEDAATYYCHHWSNTQWTFGGGTKVEIK
2 | 0.87 | 1.58 | 0.03 | 0.425 | 0.343 | 0.05 | 6.6 | 0.71 | W3162-1.146.19-z12-uAb.IgG1K (antibody, V domains shown, Humanized; label says IgG1K) VH: QVQLQESGPGLVKPSETLSLTCSVTYHTITSGYDWTWIRKPPGKGMEWIGYISYSGNTNYNPSLKSRVTISRDTSKNQFFLKLSSVTAADTAVYYCASMMVPHYYVMDAWGQGTLVTVSS VL: DIVMTQTPLSLSVTPGQPASISCRSSQSLLNSDGNTYLYWYLQKPGQSPQLLIYLVSKLGSGVPNRFSGSGSGTDFTLKISRVEAEDVGVYYCVQGTHDPWTFGGGTKVEIK
